Laboratory results from a protein production outcome set (Wang et al. 2014).

Test: label from the status in PepcDB records
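Note: failed if final PepcDB status was selected cloned or expressed and not failed if soluble or beyond.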

Row | Sequence | protein production
1 | MVIPALPKIEDQFSTSATTVAWITSAYLIVGAVASPVFGKLGDRYGKKKIYLLAIAFYSLAVLIAGFSTNIYMLIFARAIQGLGFAVFPIAIAIITDLFPRERVAWAQSILSATLALGPALGLLIGAYIVQDLGWQYAFHTAFILSIILMFISIRFIQEIPSKTKERIDYLGAVFLMLAVISLLVYLTEGPSIGWFSATQFSLILTSIISFGVFIFVERRVAEPLMKLDLFRIRNIMVANISGLIAGTAMFLMFIGLTYYAQLPKPYGLGLSIIDSGLLMAPVALTMMVVGPIVGRLINSTGPKPLLIFGSIVGIIGFLLLNAFNSTNIQVLLDTVVASVGIISLMIPLVNMVAVSLPEDQRGVGIGMNTLIRSIGSSVGPVISTVFMDTYTAWIGYLFNNQYLPIASVPSSEAFHYIYLVGICLMFINLLVALLTKNYVLKQKVKTTESVV | failed
2 | MEDLKGSHGLGLKIQLSRVCEVKPEVKPLPAGETPSCGFARLDRRCLCGHRATLIPLGLPIAPRPPPSRCPFLKPSLPYVPGPEYGKQRPSCPVPIMSEVTKELLELVWGTKSSPGLSDTIFCRWTQGFVFSDSEGSALEQFEGGPCAVIAPVQAFLLKKLLFSSEKSSWRDCSEDEQKELLCHTLCDILESACDSSGSYCMVSWLRGRTTEDAARISGSPAQSSCQVGHSSALAVEELGFERFHALIQKRSFRTVSELKDAVLDQYSMWGNKFGVLLFLYSVLLTKGIENIKNSIEDANEPLIDPVYGHGSQSLINLLLTGHAVSNVWDGDRECSGMQLLGIHEQATVGFLTLMEALRYCKVGSYLKSPKFPIWIVGSETHLTVFFAKDMALVAPEAPSEQARRVFQTYDPEDNGFIADTLLEDVMKALDLVSDPEYINLMKNKLDPEGLGIILLGPFLQEFFPDQGSSGPESFTVYHYNGLKQSNYNEKVMYVEGTAVVMGFEDPMLQTDDTPIKRCLQTKWPYIELLWTTDRSPSLN | failed
3 | MEAKLSSIEIPVGQDELSGTLLTPTGMPGVLFVHGWGGSQHHSLVRAREAVGLGCICMTFDLRGHEGYASMRQSVTRAQNLDDIKAAYDQLASLPYVDAHSIAVVGLSYGGYLSALLTRERPVEWLALRSPALYKDAHWDQPKVSLNADPDLMDYRRRALAPGDNLALAACAQYKGDVLLVEAENDVIVPHPVMRNYADAFTNARSLTSRVIAGADHALSVKEHQQEYTRALIDWLTEMVVGRRIALAKEVVAARKQLLKEQQGDAVSLPGQGSREFRGDIRAVEKTSA | not failed
4 | MDEQEFRKQLTLKPVEEEHIDQFNELLSYVFQVTEADIEESGFENKRAFIKSKQPILELSKVFGWFHENQLISQIAIYPCEVNIHGALYKMGGVTGVGTYPEYANHGLMKDLIQTALEEMRQDKQWISYLFPYNIPYYRRKGWEIMSDKLSFKIRDTQLPKTVPVPGMIERLAVDHPDVFDVYARFARQNHGALIRSAFNWEEYWRFENEEERTAAVYYGANQEPLGVLFYWVADEVFHIKEMFYLNQEARNGLWNFITAHFSMVYWVKGDIYKNEPLAFLLEDSQIKESIEPYYMARIVDVKAFLENFPFESTAKPFHFVVKDPVAEWNNGIFGLIWDENDQVTITDEPLGTAVHLDIQTLTCLVMNYRRPSYLHRIERIDTDKETLNSLERIFPDQEAYFSDYF | not failed
5 | MTTSIGGLFFNLVALSLLSAIGLGVVHGITYSKWMPLLGNNATFGIHKFSIQVNVKECIKGCMLAILTMVPFIIVIGIMIAPVFQQLMMMTMLGGSDAGSEFVLQYYPQIMASYFLYFVAILVFASYLYVTLRNLFLNNLTLANGTIRFHSSVTAIGMLLRMLAVLMGSSITCGLAYPWLKMWMVSWIANNTHVQGDLDSLELTNDDKPQDSGSLMWISRGIMPYVPFI | failed
6 | MDLSGVKKKSLLGVKENNKKSSTRAPSPTKRKDRSDEKSKDRSKDKGATKESSEKDRGRDKTRKRRSASSGSSSTRSRSSSTSSSGSSTSTGSSSGSSSSSASSRSGSSSTSRSSSSSSSSGSPSPSRRRHDNRRRSRSKSKPPKRDEKERKRRTLSPKPTKVHIGRLTRNVTKDHIMEIFSTYGKIKMIDMPVERMHPHLSKGYAYVEFENPDEAEXALKHMDGGQLMARDHCYCCVGTLASATTSRFSPPRRMLPPPPCGVGHPHG | not failed
7 | MIFSQRIYFIILFHVLLILVTAGTGLWLVVSHTGYIIGGILLLCSLFQIGALTRQLNTFNRKIRLFFDAVQDKDNMLYFPEANVGKEQAQLNRSLNRLNDLLARTKGESHKQEHFYQSLLEEVPSGVLAWDDSGRIIIANSAAFSLLKCNRLYTETQLAQLLNATGIRKSLSISEKKMILDGETITILSIKDIGDELSDKENESWSKLTHVLTHEIMNTIAPILSLSQTLSERPDINEKSARGLRIIQAQSERLMEFTESFRHLSYLPHPEKRRFALTEMLRNLEELLQSDFRERGIRFMLQCVPDPIETDGDPNQLSQVFLNLLKNAMQALEGQADGRIILRVRRADRLQVEIEDNGPGIPEEIREQIFIPFFTTKTEGSGIGLSLCKQIIRQHDGHLSIRESRPGQTIFSLDLP | failed
8 | MSEVNKKVQDGVDDYLEEEDFGQLLEAFDKSREEATTEGVIVEIKNDEVYVDIGKKSEGILALSEIQGDNSKLLFNVGDSIKVAVMGSRGGRSLLSHKKALRKEKVIEFIKNYQENQDDIFTVKVVGKNKGGLIVVDENDVEFFLPKSQYGFKETNNIIGKTFKVKIIKIDKDEQSIIVSRKKTLDDERRKRKELINNVAQQEDLIEGIVKKITTYGMFVDVGGVDGLVHYSEISYKGPVNPGTLYKEGDKVPVKVIKYDKERKHLSLSIKAALPDPWSEIKDTLDIGDTIKVIVSNIEPYGAFVDLGNDIEGFLHISEISWDKNIKNPKDYINKGQEIDVEVIEINPNERRLRVSLRNLLSRPFDEFMKSYKIADVVEGEITSVTSFGAFVKLGGIEGLLHNEDASWDRNDKCKDKFSQGDKIKVKIIKIDEENQKISLSTKELSSSPVQEYAKIHKVGDIVKGAIRDIKDFGVFVELSKNVDALIHKEDISTSMLENLKIGDDIEAAIVFIDEKKNRIRLSVKNLVRIKEREVLNEINNDDKVTLGDIIKDQLALEHHHHHH | not failed
9 | MKISEVLVKVGDGVHTLLLDRPIVRDGRKFDAPLLWMVVLMTAFGLLMIYSASVYLASKEGGDQFFYLTRQAGFVVAGLIASGFLWFLCRMRTWRRLVPWIFALSGLLLVAVLIAGREINGATRWIPLGPLNFQPTELFKLAVILYLASLFTRREEVLRSMESLGWQSIWRGTANLIMSATNPQARRETLEMYGRFRAIILPIMLVAFGLVLIMVQPDFGSFVVITVITVGMLFLAGLPWKYFFVLVGSVLGGMVLMITAAPYRVQRVVAFLDPWKDPQGAGYQLTHSLMAIGRGEWFGMGLGASLSKRGFLPEAHTDFIFAIIAEEFGFFGMCVLIFCYGWLVVRAFSIGKQSRDLGLTFNAYIASGIGIWIGIQSFFNIGVNIGALPTKGLTLPLMSYGGSSVFFMLISMMLLLRIDYENRQKMRGYRVE | failed
10 | MVTIANDFLTVKISRHGAELTSIKDNLTGRERLWQADPAVWGRHAPVLFPIVGALADNQYHYAGKTYHMGQHGFARDRDFTVLSATPFKASFVLKDDDKTRAMYPFAFRLIITFALENNNLHVTYHVDNPDKSEPLFFSIGGHPGFKVPMTPDTQFSDYYLNFKPRKSLVQIPLVAGEGIDYTHRTLAATDANLALTHETFDHDALIFALLGKTTFNLVSDKTKHGVSVTMTDTPYLGVWSPYPTTGDFVCIEPWWGIADTIGSTGDLTRKLGINRLEPGTAFEKGYMISIFLEHHHHHH | failed
11 | AIAEALWTNKIEDPLSLMSFTVPPLRLLSAAMWQVTERRQVKHYGMLEEFVSLVTETIPELLNQHQRAQLILGLRARHLLELCRGKHQGSLKEIQPHLKRLCRPRVNKEFADEDMEESEACFLDLVRTLISNPKEKEHYFQNIFPEEYGPKFDKNLHALMEDFLLKLDRMVSVPDLSETVSWLRTCPSLLDDCIDSVSVPKDMKSLLEHHTAKGNLQDSEGNNCTFSSQSLPPLVQVVISSDHTESGEPSDLNGQDNDDEQASKTSSDGWTIKKIKLKTETEEEDNDQNWPITEAKSTGTRDGYDDGCLGEEPNQTQS | failed
12 | MAIKGPRKHLKRLAAPANWQLPRKVKTFTVRPSPGPHSMDKSLPLLLVVRDVLKYADNAREAKKIIQTGKILIDGLKRKEYKHPAGLMDVLSIPEMDETYLVLFDESGRISLKKTDKTDVKLCKIVNKTVVKGGNIQLNLHDGRNQIVKVSDAAKAEEDVYKTGDSVLISIPEQSIAGHVAFGEGKLAYITGGKHVGEFAKIVEVENRALYSDIVTLENKDGEKFKTVKPYVFIVGQDEPVISMLEHHHHHH | not failed
13 | MTNKITERITGHTELIGLIATPIRHSLSPTMHNEAFAKLGLDYVYLAFEVGDKELKDVVQGFRAMNLRGWNVSMPNKTNIHKYLDKLSPAAELVGAVNTVVNDDGVLTGHITDGTGYMRALKEAGHDIIGKKMTICGAGGAATAICIQAALDGVKEISIFNRKDDFYANAEKTVEKINSKTDCKAQLFDIEDHEQLRKEIAESVIFTNATGVGMKPFEGETLLPSADMLRPELIVSDVVYKPTKTRLLEIAEEQGCQTLNGLGMMLWQGAKAFEIWTHKEMPVDYIKEILF | not failed
14 | MKKFIILLSLLILLPLTAASKPLIPIMKTLFTDVTGTVPDAEEIAHKAELFRQQTGIAPFIVVLPDINNEASLRQNGKAMLAHASSSLSDVKGSVLLLFTTREPRLIMITNGQVESGLDDKHLGLLIENHTLAYLNADLWYQGINNALAVLQAQILKQSTPPLTYYPHPGQQHENAPPGSTNTLGFIAWAATFILFSRIFYYTTRFIYALKFAVAMTIANMGYQALCLYIDNSFAITRISPLWAGLIGVCTFIAALLLTSKR | failed
15 | MNYSSRQQPKRNWLRKVDWILVLVISLLALTSVILISSAMGGGQYSANFSIRQIIYYIFGAIIAFLIMIISPKKIKNNTYILYSIFCVLLIGLLILPETSITPIINGAKSWYSFGPISIQPSEFMKIILILALAKTISKHNQFTFNKSFQSDLMLFFKILGVSIIPMALILLQNDLGTTLVLCAIIAGVMLVSGITWRILAPLFIVAFVSGSSIILAIIYKPSLIENLLGIKMYQMGRINSWLDPYSYSSGDGYHLTESLKAIGSGQLLGKGYNHGEVYIPENHTDFIFSVIGEEMGFIGSVLLILLFLFLIFHLIRLASKIDSQFNKVFIIGYVSLIVFHVLQNIGMTVQLLPITGIPLPFISYGGSSLWSLMTGIGVVLSIYYHEPQRYEITTLSKKSNTI | failed
16 | RKFEGMKTVQLICIKMSCIMLFFVSGYAKGTQEEHTMQFGEEKTTYLLHLPKGYIQGKAYSLVVNFHGLGSAAIKHQHYCQLDAVADKEGFIAVYPQSYHQGWNAGLGFTSYIQGHDDIAYFNALLDTLEAAYSIDKNRIYVTGVSLGGSFTYRIACEMSKRIAAIASVSGLMSDSTLIYCTPERSVPVMHIHGTKDHIMRYTGMKQAFGAEEVVRLWALKDQCENKPDTVFVPNTSKKDHTSSILIKYTHCANGSEVWFYKIYNGGHTWPGAAKAFKLMGRKSKDFNG | failed
17 | PSLPGIEAAARYLPATQGMEIGGDFYDLVATVGRAAAVIGDVQGHNVTAAGLMGQIRTAVRAYTTVGQAPGQVMRSTNRLMIDLGTDLFASCVYLRLDPARQRVVMARAGHPPPLLRKPDGQVRVLDLAGGPLLGIDADATYTTTEFALAPGSVLALYTDGLIESPGIDIEDALAELGERLAESGDEPLDELADRLVRHTATAEERLDDIALLLLRARA | failed
18 | MEEHNANPLRFETNPYHNIVIKDRKVMELTGVKQIDSFDANEFLLETAQGWLMIQGKDLKLGKLDTERGDVIINGIIEALSYVSNKKGTAKETMMSKLFR | failed
19 | MNATHDLQSTPSRLRRFACMMYEGVLLFGVVFIASYLFDTLTQSKHGLMLRDGRQVWLFLVIGLYFVLCWRRRGQTLPMKTWNIRLVDRDGQPPSTPRLVLRYVLAWPLPLGAAALVWLASSLTGWRSVDMFIVLAPFAIFAWSWVDPDGQFLHDRLLGTRLRNAPPRAARAVAGT | failed
